Experimental data reported in publication PMC3472187, “Crystal structure of HutZ, a heme storage protein from Vibrio cholerae: A structural mismatch observed in the region of high sequence conservation” (BMC Structural Biology, 2012).

Biological target: the molecule itself
Experiment: SEC

B1: HutZ (residues 13-150, His tagged) (domain or fragment)
chain: RLEPEIKEFRQERKTLQLATVDAQGRPNVSYAPFVQNQEGYFVLISHIARHARNLEVNPQVSIMMIEDETEAKQLFARKRLTFDAVASMVERDSELWCQVIAQMGERFGEIIDGLSQLQDFMLFRLQPEQGLFVKGFG
notes: also called truncated HutZ; source: E. coli BL21 (DE3), purified (Ni-chelating Sepharose, Source 15Q, Superdex-200)
stoichiometry N: 2
